Like-named read-outs stand apart in the source and are kept apart here. Where no end group is shown, it is not given here.
T1: IL-17R (Homo sapiens, UniProt Q96F46)
T1 construct: endogenous in cells; host or cells: human foreskin fibroblasts (HFF)
T1 sequence (Q96F46 33-866): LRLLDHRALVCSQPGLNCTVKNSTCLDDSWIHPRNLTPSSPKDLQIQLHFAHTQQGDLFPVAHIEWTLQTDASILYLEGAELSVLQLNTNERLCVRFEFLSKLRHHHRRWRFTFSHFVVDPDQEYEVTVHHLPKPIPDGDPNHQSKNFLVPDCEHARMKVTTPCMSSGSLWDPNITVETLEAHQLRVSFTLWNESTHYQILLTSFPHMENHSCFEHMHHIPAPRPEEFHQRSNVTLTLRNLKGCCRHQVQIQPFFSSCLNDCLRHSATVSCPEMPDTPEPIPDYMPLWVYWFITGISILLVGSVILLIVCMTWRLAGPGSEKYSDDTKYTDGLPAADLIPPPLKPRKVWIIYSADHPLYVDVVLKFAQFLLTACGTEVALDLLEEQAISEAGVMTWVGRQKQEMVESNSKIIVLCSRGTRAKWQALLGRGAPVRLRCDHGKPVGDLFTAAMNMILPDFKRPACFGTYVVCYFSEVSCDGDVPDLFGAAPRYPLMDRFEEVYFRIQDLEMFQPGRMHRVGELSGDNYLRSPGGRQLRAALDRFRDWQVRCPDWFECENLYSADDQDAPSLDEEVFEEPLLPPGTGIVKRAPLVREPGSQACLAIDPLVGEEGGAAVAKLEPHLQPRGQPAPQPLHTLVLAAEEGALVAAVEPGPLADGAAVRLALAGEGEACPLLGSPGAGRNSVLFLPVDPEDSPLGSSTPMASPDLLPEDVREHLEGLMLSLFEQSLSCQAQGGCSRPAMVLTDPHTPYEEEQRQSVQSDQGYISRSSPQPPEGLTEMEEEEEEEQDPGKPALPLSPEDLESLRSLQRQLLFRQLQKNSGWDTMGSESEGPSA

T2: huIL-17R (Homo sapiens, UniProt Q96F46)
T2 construct: FLAG (the F of FpH); polyHis (the pH of FpH)
T2 sequence (Q96F46 with tags, fused parts or gaps): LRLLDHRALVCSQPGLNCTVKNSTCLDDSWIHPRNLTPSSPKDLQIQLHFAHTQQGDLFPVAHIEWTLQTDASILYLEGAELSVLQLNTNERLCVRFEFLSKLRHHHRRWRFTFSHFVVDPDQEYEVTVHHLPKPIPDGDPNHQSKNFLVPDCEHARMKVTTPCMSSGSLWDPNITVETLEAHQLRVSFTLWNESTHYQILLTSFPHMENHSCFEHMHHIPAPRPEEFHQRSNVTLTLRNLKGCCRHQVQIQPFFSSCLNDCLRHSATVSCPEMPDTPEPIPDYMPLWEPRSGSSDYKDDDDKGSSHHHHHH


Legend:
Kv1.3 = biological target: T3, Kv1.3 (Homo sapiens, UniProt P22001); experiment: Human whole blood assay: thapsigargin-induced IL-2 and IFN-γ secretion; assay type: cell-based; settings: for IC50: human whole blood; for Potency Relative to ShK (WB, IL2): ratio of WB IL-2 IC50 to that of ShK(1-35)
T3 construct: endogenous in cells; host or cells: T cells in 50% human whole blood from multiple donors
T3 sequence (P22001 whole entry): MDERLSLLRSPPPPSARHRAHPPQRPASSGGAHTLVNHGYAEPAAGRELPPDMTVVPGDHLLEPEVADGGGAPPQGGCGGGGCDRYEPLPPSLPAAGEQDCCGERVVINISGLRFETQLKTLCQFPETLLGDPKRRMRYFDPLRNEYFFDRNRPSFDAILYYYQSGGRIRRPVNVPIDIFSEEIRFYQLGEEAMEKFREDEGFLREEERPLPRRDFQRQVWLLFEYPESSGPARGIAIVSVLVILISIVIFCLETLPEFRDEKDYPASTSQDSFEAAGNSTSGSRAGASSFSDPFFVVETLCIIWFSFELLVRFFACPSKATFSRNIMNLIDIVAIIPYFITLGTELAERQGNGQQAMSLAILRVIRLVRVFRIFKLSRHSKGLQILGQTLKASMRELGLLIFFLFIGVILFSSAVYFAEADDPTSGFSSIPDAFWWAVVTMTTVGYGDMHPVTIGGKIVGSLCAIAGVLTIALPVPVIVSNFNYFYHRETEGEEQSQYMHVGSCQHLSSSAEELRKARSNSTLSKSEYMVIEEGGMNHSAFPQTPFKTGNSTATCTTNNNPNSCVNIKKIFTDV
Protocol: An ex vivo assay was employed to examine impact of toxin peptide analog Kv1.3 inhibitors on secretion of IL-2 and IFN-γ. […] In brief, 50% human whole blood was stimulated with thapsigargin to induce store depletion, calcium mobilization and cytokine secretion. […] After 48 hours at 37° C. and 5% CO2, conditioned medium was collected and the level of cytokine secretion was determined using a 4-spot electrochemiluminescent immunoassay from MesoScale Discovery. […] Kv1.3 is the major voltage-gated potassium channel present on T cells. Allowing for K^+ efflux, Kv1.3 provides the driving force for continued Ca^2+ influx which is necessary for the sustained elevation in intracellular calcium needed for efficient T cell activation and cytokine secretion. […] Therefore, we employed a bioassay whereby the bioactivity of Kv1.3 inhibitors is assessed by examining their ability to block thapsigargin-induced cytokine secretion from T cells in human whole blood.

IL-17R = biological target: T1, IL-17R; experiment: Cell based activity assay: IL-17-induced GRO-α release from human foreskin fibroblasts (sandwich ELISA); settings: HFF, 5 ng/ml IL-17; 0.1, 1 and 10 μM antibody (FIG. 3)
Protocol: The conditioned cell medium was then assessed for GRO-α levels using a GRO-α sandwich ELISA.
Interaction of IL-17 with the IL-17R on cells induces the production of various factors, including growth-related oncogene alpha (GRO-α), from these cells. A cell-based characterization assay was developed to measure GRO-α released using sandwich ELISA. In this ELISA, a GRO-α capture antibody is utilized to bind GRO-α, and then a biotinylated GRO-α detection antibody is used to detect the captured protein. Streptavidin conjugated to horseradish peroxidise (HRP) is then added to detect the amount of biotinylated GRO-α detection antibody bound. The amount of HRP bound is measured by evaluation of absorbance at 450 nm. An increase in absorbance at 450 nm is indicative of an increase in the amount of GRO-α produced. In this assay, human foreskin fibroblasts (HFF) are incubated with 5 ng/ml IL-17 and 0.1 μM, 1 μM and 10 μM of antibody samples. The conditioned cell medium is then harvested and processed for assessment of GRO-α levels using a GRO-α sandwich ELISA.

huIL-17R = biological target: T2, huIL-17R; experiment: BIAcore solution equilibrium binding assay to huIL-17R (16429 immobilized); settings: for IL-17R binding capability: 10 nM, 100 nM and 1000 nM antibody incubated with 10 nM IL-17R (FIG. 2A); for IL-17R binding activity: 30 μM antibody with 30 nM IL-17R (FIG. 2B)
Protocol: Antibody 16429 was immobilized to a CM5 sensor chip, and 10 nM of IL-17R in the absence of antibody was used to establish the 100% binding signal of […] that is free of antibody binding in solution. In FIG. 2A, 10 nM, 100 nM and 1000 nM of indicated antibody samples were incubated with the 10 nM IL-17R to determine antibody binding in solution. In FIG. 2B, 30,000 nM of the antibody samples were incubated with 30 nM IL-17R to determine antibody binding in solution. In FIGS. 2A-B, The decreased binding signal of IL-17R after the antibody incubation indicates the binding of the antibody to IL-17R in solution.
A reference antigen binding protein (e.g., Antibody 16429 for human IL-17R or Antibody 16449 for human TR2) is immobilized to a BIACore® 2000, research grade sensor chip CM5 surface according to manufacturer's instructions (BIACore, Inc., Piscataway, N.J.). Carboxyl groups on the sensor chip surfaces are activated by injecting 60 μL of a mixture containing 0.2 M N-ethyl-N′-(dimethylaminopropyl) carbodiimide (EDC) and 0.05 M N-hydroxysuccinimide (NHS). The reference antigen binding protein is diluted in 10 mM sodium acetate, pH 4.0 and injected over the activated chip surface at 30 μL/min for 6 minutes. Excess reactive groups on the surfaces are deactivated by injecting 60 μL of 1 M ethanolamine. The final immobilized level is typically approximately 6600 resonance units (RU). Soluble target antigen (e.g., 10 nM of soluble human IL-17R or 30 nM of soluble human TR2) in the absence of soluble antigen binding protein (e.g., antibody) is used to establish the 100% binding signal to the fixed reference antigen binding protein (e.g., the positive control antibody). The decreased binding signal of the target antigen after incubation of the test immunoglobulin indicates its level of binding to the target antigen in solution.
The lead candidates were then selected based on lack of binding to the IL-17R extracellular domain as determined by BIAcore analysis. Antibody 16429 is a human antibody that specifically binds to huIL-17R. A solution equilibrium binding assay was developed to assess the binding activity of a set of antibodies to huIL-17R. Antibody 16429 was immobilized to a BIACore® 2000, research grade sensor chip CM5 surface according to manufacturer's instructions (BIACore, Inc., Piscataway, N.J.). Briefly, carboxyl groups on the sensor chip surfaces were activated by injecting 60 μL of a mixture containing 0.2 M N-ethyl-N′-(dimethylaminopropyl) carbodiimide (EDC) and 0.05 M N-hydroxysuccinimide (NHS). Antibody 16429 was diluted in 10 mM sodium acetate, pH 4.0 and injected over the activated chip surface at 30 μL/min for 6 minutes. Excess reactive groups on the surfaces were deactivated by injecting 60 μL of 1 M ethanolamine. The final immobilized level was approximately 6600 resonance units (RU). As represented in FIG. 2A, 10 nM of IL-17R in the absence of soluble antibody was used to establish the 100% binding signal of IL-17R to the fixed 16429 antibody. To determine antibody binding in solution, 10 nM, 100 nM and 1000 nM of the antibody samples were incubated with the 10 nM IL-17R. The decreased binding signal of IL-17R after the antibody incubation indicates the binding of the antibody to IL-17R in solution.

Row | Molecule | IC50 (Kv1.3; IFNg, read-out: WB (IFNg) IC50) [nM] | IC50 (Kv1.3; IL-2, read-out: WB (IL-2) IC50) [nM] | Potency Relative to ShK (WB, IL2) (Kv1.3) | blocking activity on IL-17-induced GRO-α production (IL-17R) | IL-17R binding capability (huIL-17R) | IL-17R binding activity (huIL-17R)
1 | Bivalent Fc-L10-ShK[2-35] homodimer: IgG1 Fc peptibody, Example 2 of WO2008/088422 A2 (GGGGSGGGGSSCIDTIPKSRCTAFQCKHSMKYRLSFCRKTCGTC; ends and bridges not checked; also: Fc fusion homodimer, Fc domain not in chain) | 2.29 | 0.585 | 8.73 | – | – | –
2 | 20 kDa-PEG-ShK: N-terminally 20 kDa PEGylated ShK, SEQ ID NO:380 | 0.84 | 0.38 | – | – | – | –
3 | Bivalent Fc-L10-ShK[1-35] homodimer: IgG1 Fc peptibody, Example 1 of WO2008/088422 A2 (GGGGSGGGGSRSCIDTIPKSRCTAFQCKHSMKYRLSFCRKTCGTC; ends and bridges not checked; also: Fc fusion homodimer, Fc domain not in chain) | 0.32 | 0.386 | 5.76 | – | – | –
4 | 16438 (antibody, V domains shown) VH: QVQLVQSGAEVKKPGASVKVSCKASGYTFTRYGISWVRQAPGQGLEWMGWISTYSGNTNYAQKLQGRVTMTTDTSTSTAYMELRSLRSDDTAVYYCARRQQYFDYWGQGTLVTVSS VL: EIVMTQSPATLSVSPGERATLSCRASQSVSSNLAWFQQKPGQAPRLLIYDASTRATGVPARFSGSGSGTEFTLTISSLQSEDFAVYYCQQYDNWPLTFGGGTKVEIK | – | – | – | no significant blocking activity | substantial reduction in IL-17R binding capability | no significant IL-17R binding activity
5 | 16440 (antibody, V domains shown) VH: QVQLVQSGAEVKKPGASVKVSCKASGYTFTRYGISWVRQAPGQGLEWMGWISTYSGNTNYAQKLQGRVTMTTDTSTSTAYMELRSLRSDDTAVYYCARAQQYFDYWGQGTLVTVSS VL: EIVMTQSPATLSVSPGERATLSCRASQSVSSNLAWFQQKPGQAPRPLIYDASTRATGVPARFSGSGSGTDFTLTISSLQSEDFAVYYCQQYDNWPLTFGGGTKVEIK | – | – | – | no significant blocking activity | substantial reduction in IL-17R binding capability | no significant IL-17R binding activity
6 | 16439 (antibody, V domains shown) VH: QVQLVQSGAEVKKPGASVKVSCKASGYTFTRYGISWVRQAPGQGLEWMGWISTYSGNTNYAQKLQGRVTMTTDTSTSTAYMELRSLRSDDTAVYYCARRQQYFDYWGQGTLVTVSS VL: EIVMTQSPATLSVSPGERATLSCRASQSVSSNLAWFQQKPGQAPRLLIYDASTRATGVPARFSGSGSGTEFTLTISSLQSEDFAVYYCQQYDNAPLTFGGGTKVEIK | – | – | – | no significant blocking activity | substantial reduction in IL-17R binding capability | no significant IL-17R binding activity
7 | 16441 (antibody, V domains shown) VH: QVQLVQSGAEVKKPGASVKVSCKASGYTFTRYGISWVRQAPGQGLEWMGWISTYSGNTNYAQKLQGRVTMTTDTSTSTAYMELRSLRSDDTAVYYCARAQQYFDYWGQGTLVTVSS VL: EIVMTQSPATLSVSPGERATLSCRASQSVSSNLAWFQQKPGQAPRLLIYDASTRATGVPARFSGSGSGTEFTLTISSLQSEDFAVYYCQQYDNWPLTFGGGTKVEIK | – | – | – | no significant blocking activity | substantial reduction in IL-17R binding capability | no significant IL-17R binding activity

— patent US9803019B2, “Carrier immunoglobulins and uses thereof” (Amgen Inc., priority 2010, dated 2017)
